Results: paper PMC8192741, “The Komagataeibacter europaeus GqqA is the prototype of a novel bifunctional N-Acyl-homoserine lactone acylase with prephenate dehydratase activity” (Scientific Reports, 2021)

Key:
SeGqqA = molecular target: T1, SeGqqA (Komagataeibacter europaeus, UniProt A0A0M0ELU2, DEL86-170); test: X-ray crystal structure (SAD), […] Å; type: binding; settings: ACT regulatory domain; not added
T1 construct: gene gqqA; selenomethionine-substituted GqqA; residues 86-170 lost by proteolysis during crystallization (not engineered; termini V85 and His171); made as full length with C-terminal TEV site and His6 tag in E. coli BL21(DE3)
T1 sequence (A0A0M0ELU2 with tags, fused parts or gaps DEL86-170): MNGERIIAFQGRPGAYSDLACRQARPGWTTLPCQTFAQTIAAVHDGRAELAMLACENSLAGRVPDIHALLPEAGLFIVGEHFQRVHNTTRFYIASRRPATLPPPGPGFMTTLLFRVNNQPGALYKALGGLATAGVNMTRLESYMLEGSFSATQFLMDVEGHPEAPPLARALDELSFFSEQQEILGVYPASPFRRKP

GqqA = molecular target: T2, GqqA (Komagataeibacter europaeus, UniProt A0A0M0ELU2); test: X-ray crystal structure, […] Å; type: binding; settings: ACT regulatory domain at dimer interface, one per monomer; co-purified, not added
T2 construct: E. coli BL21(DE3); homodimer of 61 kDa; primers encode N-terminus MNGERIIA and C-terminus LRRKP; PDT domain 1-180, ACT domain 194-281

[1] = molecular target: the molecule itself; test: dynamic light scattering; GqqA 3.6 mg/ml in 0.1 M K2HPO4 pH 5.0, 150 mM NaCl, 20 °C; hydrodynamic radius 3.9 ± 0.1 nm; long-term measurement at room temperature for 4 days
purified protein [2] = substrate: CCCCCCCCCC(=O)CC(=O)N[C@H]1CCOC1=O; test: purified protein; type: biochemical, Komagataeibacter europaeus; settings: 5 mM EPPS pH 8.0, 0.5 mM Phenol Red, 30 °C, substrate 0-65 mM
purified protein [3] = substrate: CCCC(=O)CC(=O)N[C@H]1CCOC1=O; test: purified protein; type: biochemical, Komagataeibacter europaeus; settings: 5 mM EPPS pH 8.0, 0.5 mM Phenol Red, 30 °C, substrate 0-65 mM
purified protein [4] = substrate: CCCCCC(=O)CC(=O)N[C@H]1CCOC1=O; test: purified protein; type: biochemical, Komagataeibacter europaeus; settings: 5 mM EPPS pH 8.0, 0.5 mM Phenol Red, 30 °C, substrate 0-65 mM
purified protein [5] = substrate: CCCCCCCC(=O)CC(=O)N[C@H]1CCOC1=O; test: purified protein; type: biochemical, Komagataeibacter europaeus; settings: 5 mM EPPS pH 8.0, 0.5 mM Phenol Red, 30 °C, substrate 0-65 mM

For `N[C@@H](Cc1ccccc1)C(=O)O` [L-Phe], the “X-ray crystal structure (SAD), 1.7 Å” value (SeGqqA) was “L-Phe is also bound in the truncated SeGqqA” and the “X-ray crystal structure, 2.5 Å” value (GqqA) was “within the dimer interface we identified two L-Phe molecules”.

B1: GqqA (enzyme, Komagataeibacter europaeus CECT 8546)
chain: MNGERIIAFQGRPGAYSDLACRQARPGWTTLPCQTFAQTIAAVHDGRAELAMLACENSLAGRVPDIHALLPEAGLFIVGEHFQRVEHCLLGIPGSTLADARRIHTHPVAMAQVRGIITELGLDPVVEFDTAGAAEMVREWGRKEDVAVASALAAELNGLEILRRNVEDATHNTTRFYIASRRPATLPPPGPGFMTTLLFRVNNQPGALYKALGGLATAGVNMTRLESYMLEGSFSATQFLMDVEGHPEAPPLARALDELSFFSEQQEILGVYPASPFRRKP
notes: GqqA, quorum quenching N-acyl-homoserine lactone acylase / prephenate dehydratase of Komagataeibacter europaeus CECT 8546; 281 amino acid residues, about 30.5 kDa; PDT domain 1-180, ACT domain 194-281; the gene was integrated in pET21a; no removal of the tag by TEV is described; also called native GqqA; GqqA wt; source: E. coli BL21 (DE3), purified (Ni-NTA, size-exclusion chromatography)
B1 was tested, and the “stoichiometry N” value [1] was 2, the Km (purified protein [2]) was 16.7 ± 0.5 mM and the Vmax (purified protein [2]) was 13.8 µmol/min/mg. It also gave a Vmax/Km (purified protein [2]) of 820 µL/min/mg, a Km (purified protein [3]) of 6.89 ± 0.15 mM and a Vmax (purified protein [3]) of 109 µmol/min/mg. The Vmax/Km (purified protein [3]) was 15900 µL/min/mg, the Km (purified protein [4]) was 4.87 ± 0.12 mM and the Vmax (purified protein [4]) was 117 µmol/min/mg. It also gave a Vmax/Km (purified protein [4]) of 24100 µL/min/mg, a Km (purified protein [5]) of 2.36 ± 0.35 mM and a Vmax (purified protein [5]) of 152 µmol/min/mg. It also gave a Vmax/Km (purified protein [5]) of 64500 µL/min/mg.
